[ ]: non-standard residue; d: D form.
B1: cyclic nNOS β-hairpin peptide H106Y (peptide)
peptide: cyclo(TYLETTFTGDGTPKTIRVTQ[dP]GQ)
SMILES: CC[C@H](C)[C@@H]1NC(=O)[C@H]([C@@H](C)O)NC(=O)[C@H](CCCCN)NC(=O)[C@@H]2CCCN2C(=O)[C@H]([C@@H](C)O)NC(=O)CNC(=O)[C@H](CC(=O)O)NC(=O)CNC(=O)[C@H]([C@@H](C)O)NC(=O)[C@H](Cc2ccccc2)NC(=O)[C@H]([C@@H](C)O)NC(=O)[C@H]([C@@H](C)O)NC(=O)[C@H](CCC(=O)O)NC(=O)[C@H](CC(C)C)NC(=O)[C@H](Cc2ccc(O)cc2)NC(=O)[C@H]([C@@H](C)O)NC(=O)[C@H](CCC(N)=O)NC(=O)CNC(=O)[C@H]2CCCN2C(=O)[C@H](CCC(N)=O)NC(=O)[C@H]([C@@H](C)O)NC(=O)[C@H](C(C)C)NC(=O)[C@H](CCCNC(=N)N)NC1=O
B2: cyclic nNOS β-hairpin peptide T116C (peptide)
peptide: cyclo(THLETTFTGDGCPKTIRVTQ[dP]GQ)
SMILES: CC[C@H](C)[C@@H]1NC(=O)[C@H]([C@@H](C)O)NC(=O)[C@H](CCCCN)NC(=O)[C@@H]2CCCN2C(=O)[C@H](CS)NC(=O)CNC(=O)[C@H](CC(=O)O)NC(=O)CNC(=O)[C@H]([C@@H](C)O)NC(=O)[C@H](Cc2ccccc2)NC(=O)[C@H]([C@@H](C)O)NC(=O)[C@H]([C@@H](C)O)NC(=O)[C@H](CCC(=O)O)NC(=O)[C@H](CC(C)C)NC(=O)[C@H](Cc2c[nH]cn2)NC(=O)[C@H]([C@@H](C)O)NC(=O)[C@H](CCC(N)=O)NC(=O)CNC(=O)[C@H]2CCCN2C(=O)[C@H](CCC(N)=O)NC(=O)[C@H]([C@@H](C)O)NC(=O)[C@H](C(C)C)NC(=O)[C@H](CCCNC(=N)N)NC1=O
B3: cyclic nNOS β-hairpin peptide I120R (peptide)
peptide: cyclo(THLETTFTGDGTPKTRRVTQ[dP]GQ)
SMILES: CC(C)C[C@@H]1NC(=O)[C@H](Cc2c[nH]cn2)NC(=O)[C@H]([C@@H](C)O)NC(=O)[C@H](CCC(N)=O)NC(=O)CNC(=O)[C@H]2CCCN2C(=O)[C@H](CCC(N)=O)NC(=O)[C@H]([C@@H](C)O)NC(=O)[C@H](C(C)C)NC(=O)[C@H](CCCNC(=N)N)NC(=O)[C@H](CCCNC(=N)N)NC(=O)[C@H]([C@@H](C)O)NC(=O)[C@H](CCCCN)NC(=O)[C@@H]2CCCN2C(=O)[C@H]([C@@H](C)O)NC(=O)CNC(=O)[C@H](CC(=O)O)NC(=O)CNC(=O)[C@H]([C@@H](C)O)NC(=O)[C@H](Cc2ccccc2)NC(=O)[C@H]([C@@H](C)O)NC(=O)[C@H]([C@@H](C)O)NC(=O)[C@H](CCC(=O)O)NC1=O
B4: cyclic nNOS β-hairpin peptide T116N (peptide)
peptide: cyclo(THLETTFTGDGNPKTIRVTQ[dP]GQ)
SMILES: CC[C@H](C)[C@@H]1NC(=O)[C@H]([C@@H](C)O)NC(=O)[C@H](CCCCN)NC(=O)[C@@H]2CCCN2C(=O)[C@H](CC(N)=O)NC(=O)CNC(=O)[C@H](CC(=O)O)NC(=O)CNC(=O)[C@H]([C@@H](C)O)NC(=O)[C@H](Cc2ccccc2)NC(=O)[C@H]([C@@H](C)O)NC(=O)[C@H]([C@@H](C)O)NC(=O)[C@H](CCC(=O)O)NC(=O)[C@H](CC(C)C)NC(=O)[C@H](Cc2c[nH]cn2)NC(=O)[C@H]([C@@H](C)O)NC(=O)[C@H](CCC(N)=O)NC(=O)CNC(=O)[C@H]2CCCN2C(=O)[C@H](CCC(N)=O)NC(=O)[C@H]([C@@H](C)O)NC(=O)[C@H](C(C)C)NC(=O)[C@H](CCCNC(=N)N)NC1=O
B5: cyclic nNOS β-hairpin peptide L107K (peptide)
peptide: cyclo(THKETTFTGDGTPKTIRVTQ[dP]GQ)
SMILES: CC[C@H](C)[C@@H]1NC(=O)[C@H]([C@@H](C)O)NC(=O)[C@H](CCCCN)NC(=O)[C@@H]2CCCN2C(=O)[C@H]([C@@H](C)O)NC(=O)CNC(=O)[C@H](CC(=O)O)NC(=O)CNC(=O)[C@H]([C@@H](C)O)NC(=O)[C@H](Cc2ccccc2)NC(=O)[C@H]([C@@H](C)O)NC(=O)[C@H]([C@@H](C)O)NC(=O)[C@H](CCC(=O)O)NC(=O)[C@H](CCCCN)NC(=O)[C@H](Cc2c[nH]cn2)NC(=O)[C@H]([C@@H](C)O)NC(=O)[C@H](CCC(N)=O)NC(=O)CNC(=O)[C@H]2CCCN2C(=O)[C@H](CCC(N)=O)NC(=O)[C@H]([C@@H](C)O)NC(=O)[C@H](C(C)C)NC(=O)[C@H](CCCNC(=N)N)NC1=O
B6: cyclic nNOS β-hairpin peptide I120Y (peptide)
peptide: cyclo(THLETTFTGDGTPKTYRVTQ[dP]GQ)
SMILES: CC(C)C[C@@H]1NC(=O)[C@H](Cc2c[nH]cn2)NC(=O)[C@H]([C@@H](C)O)NC(=O)[C@H](CCC(N)=O)NC(=O)CNC(=O)[C@H]2CCCN2C(=O)[C@H](CCC(N)=O)NC(=O)[C@H]([C@@H](C)O)NC(=O)[C@H](C(C)C)NC(=O)[C@H](CCCNC(=N)N)NC(=O)[C@H](Cc2ccc(O)cc2)NC(=O)[C@H]([C@@H](C)O)NC(=O)[C@H](CCCCN)NC(=O)[C@@H]2CCCN2C(=O)[C@H]([C@@H](C)O)NC(=O)CNC(=O)[C@H](CC(=O)O)NC(=O)CNC(=O)[C@H]([C@@H](C)O)NC(=O)[C@H](Cc2ccccc2)NC(=O)[C@H]([C@@H](C)O)NC(=O)[C@H]([C@@H](C)O)NC(=O)[C@H](CCC(=O)O)NC1=O
B7: cyclic nNOS β-hairpin peptide T105G (peptide)
peptide: cyclo(GHLETTFTGDGTPKTIRVTQ[dP]GQ)
SMILES: CC[C@H](C)[C@@H]1NC(=O)[C@H]([C@@H](C)O)NC(=O)[C@H](CCCCN)NC(=O)[C@@H]2CCCN2C(=O)[C@H]([C@@H](C)O)NC(=O)CNC(=O)[C@H](CC(=O)O)NC(=O)CNC(=O)[C@H]([C@@H](C)O)NC(=O)[C@H](Cc2ccccc2)NC(=O)[C@H]([C@@H](C)O)NC(=O)[C@H]([C@@H](C)O)NC(=O)[C@H](CCC(=O)O)NC(=O)[C@H](CC(C)C)NC(=O)[C@H](Cc2c[nH]cn2)NC(=O)CNC(=O)[C@H](CCC(N)=O)NC(=O)CNC(=O)[C@H]2CCCN2C(=O)[C@H](CCC(N)=O)NC(=O)[C@H]([C@@H](C)O)NC(=O)[C@H](C(C)C)NC(=O)[C@H](CCCNC(=N)N)NC1=O
B8: cyclic nNOS β-hairpin peptide T112D (peptide)
peptide: cyclo(THLETTFDGDGTPKTIRVTQ[dP]GQ)
SMILES: CC[C@H](C)[C@@H]1NC(=O)[C@H]([C@@H](C)O)NC(=O)[C@H](CCCCN)NC(=O)[C@@H]2CCCN2C(=O)[C@H]([C@@H](C)O)NC(=O)CNC(=O)[C@H](CC(=O)O)NC(=O)CNC(=O)[C@H](CC(=O)O)NC(=O)[C@H](Cc2ccccc2)NC(=O)[C@H]([C@@H](C)O)NC(=O)[C@H]([C@@H](C)O)NC(=O)[C@H](CCC(=O)O)NC(=O)[C@H](CC(C)C)NC(=O)[C@H](Cc2c[nH]cn2)NC(=O)[C@H]([C@@H](C)O)NC(=O)[C@H](CCC(N)=O)NC(=O)CNC(=O)[C@H]2CCCN2C(=O)[C@H](CCC(N)=O)NC(=O)[C@H]([C@@H](C)O)NC(=O)[C@H](C(C)C)NC(=O)[C@H](CCCNC(=N)N)NC1=O
B9: cyclic nNOS β-hairpin peptide T109S (peptide)
peptide: cyclo(THLESTFTGDGTPKTIRVTQ[dP]GQ)
SMILES: CC[C@H](C)[C@@H]1NC(=O)[C@H]([C@@H](C)O)NC(=O)[C@H](CCCCN)NC(=O)[C@@H]2CCCN2C(=O)[C@H]([C@@H](C)O)NC(=O)CNC(=O)[C@H](CC(=O)O)NC(=O)CNC(=O)[C@H]([C@@H](C)O)NC(=O)[C@H](Cc2ccccc2)NC(=O)[C@H]([C@@H](C)O)NC(=O)[C@H](CO)NC(=O)[C@H](CCC(=O)O)NC(=O)[C@H](CC(C)C)NC(=O)[C@H](Cc2c[nH]cn2)NC(=O)[C@H]([C@@H](C)O)NC(=O)[C@H](CCC(N)=O)NC(=O)CNC(=O)[C@H]2CCCN2C(=O)[C@H](CCC(N)=O)NC(=O)[C@H]([C@@H](C)O)NC(=O)[C@H](C(C)C)NC(=O)[C@H](CCCNC(=N)N)NC1=O
B10: cyclic nNOS β-hairpin peptide T116P (peptide)
peptide: cyclo(THLETTFTGDGPPKTIRVTQ[dP]GQ)
SMILES: CC[C@H](C)[C@@H]1NC(=O)[C@H]([C@@H](C)O)NC(=O)[C@H](CCCCN)NC(=O)[C@@H]2CCCN2C(=O)[C@@H]2CCCN2C(=O)CNC(=O)[C@H](CC(=O)O)NC(=O)CNC(=O)[C@H]([C@@H](C)O)NC(=O)[C@H](Cc2ccccc2)NC(=O)[C@H]([C@@H](C)O)NC(=O)[C@H]([C@@H](C)O)NC(=O)[C@H](CCC(=O)O)NC(=O)[C@H](CC(C)C)NC(=O)[C@H](Cc2c[nH]cn2)NC(=O)[C@H]([C@@H](C)O)NC(=O)[C@H](CCC(N)=O)NC(=O)CNC(=O)[C@H]2CCCN2C(=O)[C@H](CCC(N)=O)NC(=O)[C@H]([C@@H](C)O)NC(=O)[C@H](C(C)C)NC(=O)[C@H](CCCNC(=N)N)NC1=O
B11: cyclic nNOS β-hairpin peptide T116W (peptide)
peptide: cyclo(THLETTFTGDGWPKTIRVTQ[dP]GQ)
SMILES: CC[C@H](C)[C@@H]1NC(=O)[C@H]([C@@H](C)O)NC(=O)[C@H](CCCCN)NC(=O)[C@@H]2CCCN2C(=O)[C@H](Cc2c[nH]c3ccccc23)NC(=O)CNC(=O)[C@H](CC(=O)O)NC(=O)CNC(=O)[C@H]([C@@H](C)O)NC(=O)[C@H](Cc2ccccc2)NC(=O)[C@H]([C@@H](C)O)NC(=O)[C@H]([C@@H](C)O)NC(=O)[C@H](CCC(=O)O)NC(=O)[C@H](CC(C)C)NC(=O)[C@H](Cc2c[nH]cn2)NC(=O)[C@H]([C@@H](C)O)NC(=O)[C@H](CCC(N)=O)NC(=O)CNC(=O)[C@H]2CCCN2C(=O)[C@H](CCC(N)=O)NC(=O)[C@H]([C@@H](C)O)NC(=O)[C@H](C(C)C)NC(=O)[C@H](CCCNC(=N)N)NC1=O

These binders were tested against T1, (7× His)-PSD-95-PDZ2 wild type (UniProt P78352 160-246) (assay: FP competition).
T1 construct: domain: PDZ2; recombinant from E. coli; also called PSD-95-PDZ2 WT; not shown: 7x His tag
T1 sequence (P78352 160-246): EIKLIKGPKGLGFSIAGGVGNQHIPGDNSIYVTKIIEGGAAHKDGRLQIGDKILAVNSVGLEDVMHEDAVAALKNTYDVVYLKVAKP

Row | Binder | Ki | Relative Ki (Ki mut/Ki WT)
1 | B1 | 1180 nM | 0.79
2 | B2 | 1360 nM | 0.91
3 | B3 | 1760 nM | 1.17
4 | B4 | 510 nM | 0.34
5 | B5 | 1200 nM | 0.8
6 | B6 | 1600 nM | 1.07
7 | B7 | 4500 nM | 3
8 | B8 | 950 nM | 0.63
9 | B9 | 24500 nM | 2.51
10 | B10 | 1160 nM | 0.77
11 | B11 | 1040 nM | 0.69
